This note sets out measurements from the RNAGym collection of RNA variant scans (doi:10.1073/pnas.2313332121).

To fix the notation:
B1: TPR t1 (parent)
chain: GACCAAUCUGCCCUCAGAGCUCGAGAACAUCUUCGGAUGCAGAGGAGGCAGGCUUCGGUGGCGCGAUAGCGCCAACGUCCUCAACCUCCAAUGCAUCCCACCACAUGAUGAUGCCUGAAGAGCCUUGGUUUUUUG

The variants in the data set derive from B1. The data set can be described thus: polymerase ribozyme fitness, log enrichment relative to wild type (log ratio); higher = more active; in vitro selection for triplet polymerase activity. The method in brief:
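Both subunits of a heterodimeric triplet polymerase ribozyme were given their own mutant library, built by PCR and transcribed. Each library was annealed with a biotinylated primer, the partner subunit and triplets, incubated frozen at −7 °C, and its extended constructs gel-excised, captured on streptavidin beads and amplified by RT-PCR, all in one round done in triplicate. Fitness is the logarithm of genotype enrichment relative to wild-type enrichment, with replicates averaged by inverse-variance weighting. That logarithm is base 2, and Illumina-sequenced genotypes needed ≥10 input reads and ≥1 read per output.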
As for C4U U38A G45U C49G G71A, the “polymerase ribozyme fitness (log ratio)” value is -4.53.
In the case of C4U A27U C64U A95C A111C A118G it was -6.19; in that of C4U G10U G52U C88G C123U, -0.494.
In the case of C4U A18C it was -3.99.
In the case of C4U G69C C97U G122A it was -2.49.
With C4U C56G A111U, the “polymerase ribozyme fitness (log ratio)” value was -2.42.
In the case of C4U C8G G36U U38A G44U C73A C124A it was -4.82; in that of C4U G48A G52A U92A, -5.54; in that of C4U G48U C56G U78A C98U U112G G135A, -4.14.
In the case of C4U G10C G69U U125A it was -2.15.
Take C4U C12A A66C C70A: the “polymerase ribozyme fitness (log ratio)” value was -5.72.
Next, C4G A41U: -2.07; C4U C15U A18G G113A: -3.08; C4G G47A: -2.34.
In the case of C4A G48C C62A it was -3.18; in that of C4A U32C G61A U106A G127U U130G G135U, -2.56; in that of C4A G63C G77C G128U, -3.69.
In the case of C4G C104U it was -0.878; in that of C4U A43C G45A G69U C124A, 0.59; in that of C4A G71A A84C G117U, -6.14.
Turning to C4U A75U A95C U96A G120A, the “polymerase ribozyme fitness (log ratio)” value is -1.94.
Next, C4G U9G G10C: -0.357; C4G C11A A16G A37U G69A G77C G113U C124U: -4.9.
In the case of C4G U7C G69U it was -0.0887; in that of A5C A29U A121G, -0.781; in that of C4U C8G C28A G35U G48C C49G C64U C88U A103G A111U, -6.13.
Next, C4G C12U: -2.1; C4A G42A: -2.74.
For the variant C4A C56G A84G C89U C115A, the “polymerase ribozyme fitness (log ratio)” value was -4.85.
Next, C4G G10U C20G G69A C114U: -6.96.
Next, C4U U9G G35A G47U G48U G63A C104U G113U: -6.85; C4A G36C C104U A119G A121U G128U U129A: 0.665.
In the case of C4G C13U C20G A27U G71U U106A U125G it was -5.01; in that of C4G C8G A50U G113C C115U, -5.07.
On to C4U C12U C13U C124G, for which the “polymerase ribozyme fitness (log ratio)” value was found to be 1.84.
In the case of C4A A90U it was -2.78; in that of C4G U92C, -3.05.
Next, C4A G110A: -2.19; C4G U9G A43U: -1.6; C4U A18G G58A G69U: -2.44.
In the case of C4U G120A it was 0.077; in that of C4U C11A G44C C82G A121C G127A, -0.143; in that of C4A C11G A16G G36C C56U G113U, -2.81.
As to C4G A18U G25C C62A A111U, the “polymerase ribozyme fitness (log ratio)” value was -6.22.
Regarding C4A U87G, the “polymerase ribozyme fitness (log ratio)” value is -1.28.
Next, A5C A27C: -3.97; C4G C8G A37U G45A U131G: -2.92; C4U A43C G45A A74U C124A: -2.29.
As for C4A C8A G36A C72G C99G C104A C124U, the “polymerase ribozyme fitness (log ratio)” value is -6.92.
In the case of C4U G71U C114G U132A it was -3.02; in that of C4U C53U G69A U78A C86U, -3.99; in that of C4G G120A, -0.396.
In the case of C4G G120C it was -1.15; in that of C4G G60U, -1.18.
In the case of C4G G60A, the “polymerase ribozyme fitness (log ratio)” value was -1.91.
Next, C4U G10A G52U U81G C123G U125A: -4.99; C4U C56A C86U: -1.22.
In the case of C4U C49U C97U G128U it was -2.93.
Consider C4G C8U C15A G44U G61A, for which the “polymerase ribozyme fitness (log ratio)” value was -4.85.
In the case of C4U C11G C101U it was -0.238; in that of C4A U32C G69U G113A, -2.74.
Next, C4A C72A G113A: -3.57; A5C A41U: -2.41; C4U A5C G57C A68U C73U C115U C124U: -6.74.
Turning to C4G C8A C89A G120C, the “polymerase ribozyme fitness (log ratio)” value is -0.0855.
In the case of C4U A43U C70U it was -3.47; in that of C4A C40U C53U G57U A83C G113U, -5.8; in that of C4A G17U C73U, -3.37.
In the case of C4U G48U G52U C73U A90U C124G it was -2.07.
C4U C56A C114A C124U: the “polymerase ribozyme fitness (log ratio)” value was -3.31.
Regarding C4A U59A C88A, the “polymerase ribozyme fitness (log ratio)” value was -2.43.
Next, C4U C20U U59G C89G U112A U125A U131C: -2.82; C4G C28A C40G G48U C49G G63A U96G C114G U116G: -6.86.
C4A C13U C124A: the “polymerase ribozyme fitness (log ratio)” value amounted to 0.115.
Next, C4U G17U G60U C89A: -4.98; C4A C40U C62A U112A: -2.53.
In the case of C4A U7A G71A it was -1.76.
In the case of C4A C8G A18C G23C U112G U116A it was -5.14.
For the variant C4G C15U G47C C73U A105U G107U C123G U126A, the “polymerase ribozyme fitness (log ratio)” value was -7.47.
Next, C4U C53U C64U A84G: -1.67; C4U C72U G117C: -4.14.
In the case of C4G C80A it was -3.83; in that of C4A U7G A91U, -4.91.
